Measured values taken from patent US20190092852A1 (Genentech, published 2019).
Substitutions are numbered along the chain they refer to.

B1: H1M9565N (antibody, V domains shown)
VH: QVTLKESGPVLVKPTESLTLTCSVSGFSLSNVRMGVSWIRQSPGKALEWLAHIFSNDEKSYTTSLKTRLTISKDTSRSQVVLTMTDMDPGDTATYYCARIRNLAFNYWGQGTLVTVSS
VL: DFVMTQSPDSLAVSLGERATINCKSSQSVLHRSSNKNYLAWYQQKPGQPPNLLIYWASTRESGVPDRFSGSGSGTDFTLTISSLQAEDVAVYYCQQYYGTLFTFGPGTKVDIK
B2: H1M9559N (antibody, IgG1, V domains shown)
VH: QVQLVESGGGVVQPGRSLRLSCAASGFTFSSYGMHWVRQAPGKGLEWVAVIWYDGRNKYYTDSVKGRFTISRDNSKNTLYLQMDSLRAEDTAVYYCARERYISSYYGGFDPWGQGALVTVSS
VL: DIQMTQSPSSVSASVGDRVTITCRASQGISSWLAWYQQKPGKAPKVLIYAASSLQSGVPSRFSGSGSGTDFTLTISSLQPEDFATYYCQQANSFPFTFGPGTKLDIK
notes: also called RG1
B3: H1M9566N (antibody, IgG1, V domains shown)
VH: EVQLLESGGDLVQPGGSLRLSCAASGFTFSSYAMSWVRQAPGKGLEWVSVISGSGSSTDYADSVKGRFTISRDNSRDTLHLQMNSLRAEDTAVYYCAKTFYYFYGLDVWGQGTTVTVSS
VL: DIQMTQSPSSLSASLRDRVTITCRASQGISNYLAWYQQKPGKVPKVLIYAASTLQSGVPSRFSGSGSGTVFTLTISSLQTEDVATYYCQKYSSAPFTFGPGTKVDIK
notes: also called RG2
B4: H4H9633P (antibody, IgG4, V domains shown)
VH: EVQLVESGGGLVQPGGSLRLSCAASGFTFSSYVMSWVRQAPGKGLEWVSSISGNGGSTNYADSVKGRFTISRDNSKNTLFLEMNSLRAEDTAVYYCAKSLGTTTTFLGFDYWGQGTLVTVSS
VL: B2 VL with V46L, D70Y, F96L, P100G, L104V, D105E
notes: also called RG5
B5: H4H9675P (antibody, V domains shown)
VH: EVQLVESGGNLEQPGGSLRLSCTASGFTFSRSAMNWVRRAPGKGLEWVSGISGSGGRTYYADSVKGRFTISRDNSKNTLYLQMNSLSAEDTAAYYCAKDSYTTSWYGGMDVWGHGTTVTVSS
VL: B2 VL with S30F, V46L, T85I, F94V, F96I, P100Q, K103R, D105E

Each binder was assayed against T1, biotinylated cyno IL-33 (cynomolgus monkey, UniProt A0A2K5W3I1 112-269, biotin-labeled with EZ-LINK NHS-PEG4-Biotin) (assay: competitive ELISA, biotin-cyIL-33 to coated hST2-Fc).
T1 construct: also called biotin-cyIL-33
T1 sequence: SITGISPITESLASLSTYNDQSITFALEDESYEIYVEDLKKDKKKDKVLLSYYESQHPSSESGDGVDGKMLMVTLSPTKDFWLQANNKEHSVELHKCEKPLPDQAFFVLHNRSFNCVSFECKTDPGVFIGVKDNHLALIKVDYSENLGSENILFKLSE
Experimental: (§1) The ability of the anti-IL-33 antibody 10C12.38.H6.87Y.58I IgG4 and each anti-IL-33 antibody listed in Table 5 (RG1-RG20) to block either human IL-33 or cyno IL-33 binding to human ST2 receptor was tested in a competitive binding ELISA. Briefly, 1 μg/ml of recombinant human ST2-Fc chimera protein prepared in coating buffer (50 mM sodium carbonate, pH 9.6) was coated on a 384-well MAXISORP® plate (Nalgene Nunc International; Rochester, N.Y.) and incubated overnight at 4° C. On the next day, non-specific binding was blocked with PBS containing 0.5% (w/v) solution of bovine serum albumin (BSA). Fixed concentrations of biotinylated human or cyno IL-33 prepared in assay buffer (25 mM PBS, pH 7.2, 0.1% BSA, 0.05% TWEEN®-20) were mixed with an equal volume of serially-diluted anti-IL-33 antibodies or assay buffer alone and incubated for 1 h at room temperature. The final assay concentrations of biotinylated human IL-33 or cyno IL-33 were 20 pM and 45 pM, respectively, and the final assay concentration of each antibody ranged from 0-300 nM. The pre-mixed solutions were added to the ST2-Fc coated plate and incubated for 1 h at room temperature. The binding of biotinylated IL-33 to coated ST2-Fc was detected by the sequential addition of Streptavidin Poly-HRP80 (Fitzgerald; Buckinghamshire, UK) and 3,3′,5,5′-tetramethyl benzidine (TMB) Microwell Peroxidase Substrate System (KPL; Gaithersburg, Md.). The absorbance (450 nm) was recorded using a […] ASCENT® plate reader (Thermo Scientific; Rockford, Ill.). The binding activity (%) of biotin-IL-33 to ST2 in the presence of anti-IL-33 was plotted as a function of antibody concentration. The data generated were fitted to a four-parameter equation to determine IC₅₀ values for each antibody (FIGS. 25A and 25B) using Prism software (Graphpad Software; La Jolla, Calif.). The maximum blocking (%) of each antibody was calculated as the ratio of the reduction in signal measured in the presence of antibody relative to the difference between the signal with IL-33 alone and background measurements.

Row | IC50 [nM] | Maximum Blocking [%] | Binder
1 | 19 | 85 | B1

These binders were tested against T2, human IL-33 (R&D Systems, #3625-IL-010/CF) (human, UniProt O95760 112-270) (assay: cell-based or functional assay).
T2 sequence (looked up): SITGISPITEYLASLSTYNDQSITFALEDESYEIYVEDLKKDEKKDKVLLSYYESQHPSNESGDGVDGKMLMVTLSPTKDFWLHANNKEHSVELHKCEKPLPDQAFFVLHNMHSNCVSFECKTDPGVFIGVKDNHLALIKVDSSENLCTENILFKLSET

Row | Ph-p38 MFI at 0.4 nM Ab (500 pM human IL-33, primary basophils) [MFI] | Binder
2 | 90 | B2
3 | 119 | B3
4 | 149 | B4

The binders below were run against T2, human IL-33 (R&D Systems, …) (assay: SPR Biacore T200, 25 C).
Experimental: (§2) The binding kinetics of the anti-IL-33 antibody 10C12.38.H6.87Y.58I IgG4 and each anti-IL-33 antibody listed in Table 5 (RG1-RG20) to IL-33 were measured using surface plasmon resonance (SPR) on a BIACORE® T200 instrument (GE Healthcare). Anti-human Fc or anti-murine Fc (GE Healthcare, #BR-1008-39 or BR-1008-38, respectively) was immobilized on a CM5 sensor chip via amine-based coupling according to the manufacturer's protocol. Surfaces were used to capture monoclonal human IgG4 and monoclonal murine IgGs for kinetic studies. Antibody binding was measured to human IL-33 (R&D systems, #3625-IL-010/CF) and cyno IL-33 N-His (SEQ ID NO: 317) (Genentech, Inc.). A three-fold concentration series of cytokine with a range of 3.7 to 100 nM was used for the experiments. Sensograms for binding of IL-33 were recorded using an injection time of 4 min with a flow rate of 30 μl/minute with a running buffer of 0.01 M N-(2-Acetamido)iminodiacetic acid (ADA) pH 7.4, 0.15 M NaCl, 3 mM EDTA, and 0.05% TWEEN®-20. After injection, disassociation of the ligand from the antibody was monitored for 10 min in running buffer. The surface was regenerated in between cycles with an injection of 3 M magnesium chloride or Glycine-HCl pH 1.7. All binding experiments were performed at a temperature of 25′C and 37° C. After subtraction of a blank which contained running buffer only, sensograms observed for IL-33 binding to anti-IL-33 antibodies were analyzed using a 1:1 Langmuir binding model with software supplied by the manufacturer to calculate the kinetics and binding constants, including the dissociation constant (KD). Dissociative half-lives (t_{1/2}) were calculated from the kinetic rate constants. KD (M)=koff/kₒₙ and t_{1/2} (min)=ln(2)/(60*koff). […] In Tables 6-9, *IC indicates the result is inconclusive due to weak capture of antibody was observed, leading to poor binding data.

Row | Kd [nM] | koff [s⁻¹] | kon [M⁻¹ s⁻¹] | t1/2 [min] | Binder
5 | 0.811 | 0.000184 | 226000 | 63 | B2
6 | 0.798 | 7.73e-05 | 96900 | 149 | B3
7 | 0.941 | 0.000462 | 491000 | 25 | B4

Target: T3, cyno IL-33 N-His (cynomolgus monkey)
T3 chain: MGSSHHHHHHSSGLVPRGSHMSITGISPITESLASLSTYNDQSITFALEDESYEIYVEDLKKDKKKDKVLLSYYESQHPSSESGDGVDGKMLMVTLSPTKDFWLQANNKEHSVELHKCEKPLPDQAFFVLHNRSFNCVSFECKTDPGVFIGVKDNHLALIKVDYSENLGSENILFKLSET
Experiment: SPR Biacore T200, 25 C
Experimental: as §2

Row | Kd [nM] | koff [s⁻¹] | kon [M⁻¹ s⁻¹] | t1/2 [min] | Binder
8 | 2.98 | 0.000606 | 203000 | 19 | B1
9 | 2.73 | 0.000988 | 362000 | 12 | B5
10 | 3.76 | 0.000458 | 122000 | 25 | B2
11 | 0.656 | 7.66e-05 | 117000 | 151 | B3
12 | 14.9 | 0.00337 | 227000 | 3 | B4

What follows are binders tested against T4, biotinylated human IL-33 (human, UniProt O95760 112-270, biotin-labeled with EZ-LINK NHS-PEG4-Biotin) (assay: competitive ELISA, biotin-huIL-33 to coated hST2-Fc).
T4 construct: also called biotin-huIL-33
T4 sequence (looked up): T2 sequence (looked up)
Experimental: as §1

Row | IC50 [nM] | Maximum Blocking [%] | Binder
13 | 4.1 | 75 | B2
14 | 0.099 | 27 | B3
15 | 1.1 | 68 | B4

Target: T5, cynomolgus monkey N-terminal 6-His-tagged and C-terminal Avi-tagged IL-33 (S112-T270) (cynomolgus monkey)
T5 chain: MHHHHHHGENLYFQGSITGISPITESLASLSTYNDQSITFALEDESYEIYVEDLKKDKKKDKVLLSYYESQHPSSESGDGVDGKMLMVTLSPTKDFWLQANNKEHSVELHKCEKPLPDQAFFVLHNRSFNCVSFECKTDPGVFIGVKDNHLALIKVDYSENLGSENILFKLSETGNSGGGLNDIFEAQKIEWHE
Experiment: cell-based or functional assay

Row | IC50; SEAP reporter (OD 620), HEK-BLUE IL-33/IL-1beta cells, 5 pM cyno IL-33 (5pM cIL-33-Nhis) [M] | Binder
16 | 5.7e-08 | B5

Target: T2, human IL-33 (R&D Systems, …)
Experiment: cell-based or functional assay
Remark: another data set of the same source

Row | IC50; SEAP reporter (OD 620), HEK-BLUE IL-33/IL-1beta cells, 10 pM hIL-33 [M] | Binder
17 | 9.5e-09 | B2
18 | 1.7e-08 | B3
19 | 3.7e-09 | B4

Target: T2, human IL-33 (R&D Systems, …)
Experiment: cell-based or functional assay
Remark: another data set of the same source

Row | IC50; IFN-gamma ELISA, primary human NK cells, 260 pM hIL-33 + IL-12 [M] | Binder
20 | 4.1e-08 | B4

What follows are binders tested against T2, human IL-33 (R&D Systems, …) (assay: SPR Biacore T200, 37 C).
Experimental: as §2

Row | Kd [nM] | koff [s⁻¹] | kon [M⁻¹ s⁻¹] | t1/2 [min] | Binder
21 | 2.37 | 0.000888 | 374000 | 13 | B2
22 | 4.04 | 0.000522 | 129000 | 22 | B3
23 | 0.726 | 0.000845 | 1.16e+06 | 14 | B4

Target: T3, cyno IL-33 N-His
Experiment: SPR Biacore T200, 37 C
Experimental: as §2

Row | Kd [nM] | koff [s⁻¹] | kon [M⁻¹ s⁻¹] | t1/2 [min] | Binder
24 | 6.72 | 0.00505 | 751000 | 2 | B5
25 | 8.33 | 0.00193 | 232000 | 6 | B2
26 | 2.54 | 0.000469 | 185000 | 25 | B3
27 | 42.7 | 0.0113 | 265000 | 1 | B4

Target: T5, cynomolgus monkey N-terminal …
Experiment: cell-based or functional assay
Remark: another data set of the same source

Row | HEK-BLUE SEAP reporter IC50 [nM] | HEK-BLUE SEAP reporter, fold weaker than 10C12.38.H6.87Y.58I IgG4 [fold] | Binder
28 | 6.1 | – | B1
29 | – | 14 | B5

Target: T2, human IL-33 (R&D Systems, …)
Experiment: cell-based or functional assay
Remark: another data set of the same source

Row | Ph-p38 MFI at 2 nM Ab (500 pM human IL-33, primary basophils) [MFI] | Binder
30 | 100 | B2
31 | 146 | B3
32 | 142 | B4
